Measurements: the RNAGym collection of RNA variant scans (doi:10.1073/pnas.2313332121)

B1: TPR t1 (parent)
chain: GACCAAUCUGCCCUCAGAGCUCGAGAACAUCUUCGGAUGCAGAGGAGGCAGGCUUCGGUGGCGCGAUAGCGCCAACGUCCUCAACCUCCAAUGCAUCCCACCACAUGAUGAUGCCUGAAGAGCCUUGGUUUUUUG

Variants of: B1
Assay: polymerase ribozyme fitness, log enrichment relative to wild type (log ratio); higher = more active; in vitro selection for triplet polymerase activity
Summary of the method: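 Libraries of mutants in each subunit of a heterodimeric triplet polymerase ribozyme were generated by PCR and transcribed. In triplicate, each went through one in vitro selection round: annealing with biotinylated primer, partner subunit and triplets; frozen incubation at −7 °C; gel excision of extended constructs; streptavidin-bead capture; RT-PCR. Fitness, taken from Illumina sequencing of input and output libraries, is the logarithm of a genotype's enrichment over wild-type enrichment, averaged across replicates with inverse-variance weights. The logarithm is base 2, and genotypes needed ≥10 input reads and ≥1 read per output to be kept.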

Row | Variant | polymerase ribozyme fitness (log ratio)
1 | A37U C49G | -0.828
2 | G36U C89A | -2.46
3 | G36A G71U C76U U125A | -4.4
4 | A37G U109G | -5.43
5 | G36U G63A C85A | -3.57
6 | G36C G42C G60C U130A | -3.88
7 | G36U G63C C76G G117A | -5.18
8 | G36C C76A C79U A121U | 1.44
9 | G36U G51A G60U U112C C123U | -1.16
10 | G36A G63U C85G | -2.03
11 | A37G A46U C56A G120A | -1.7
12 | A37C C49A C76G G117A C123G U125A | -1.24
13 | G36A U129G | -2.39
14 | G36C G51A | -3.99
15 | A37U C53G G63C U116A | -2.98
16 | G36A C86U | -0.488
17 | G36U G47A C79U | -2.47
18 | A37C C49A C104U U125G | -1.1
19 | G36U G44A C104A | -4.47
20 | G36U C73U | -2.28
21 | G36U G69U | -0.697
22 | G36U U78C C89G C101A | -4.13
23 | A37C C89U C115G | -3.26
24 | A37C C49U G61C | -3.38

Row | Variant | polymerase ribozyme fitness (log ratio)
25 | A37C U96G | 0.787
26 | G36C C49U | -1.18
27 | G36A G58A C62U U116A | -4.45
28 | G36C A50C U59A A118U G120A | -0.713
29 | A37G C49G U81G | -2.07
30 | A37C G45U G51U C73U | -4.53
31 | A37G C56U A100U C102A U116A | -6.14
32 | G36U G44A G47A G48U C82G A121C | -0.473
33 | G36C C40A C101A C104U A121U | -1.4
34 | A37G G52C A100C C104U | -2.8
35 | G36C C72A C76A U106A G110A | -5.56
36 | A37C G113C | -2.44
37 | A37G G77A U130G | -1.16
38 | G36C C70U G113C | -3.46
39 | A37U C62A U92C | -2.86
40 | A37U A91G A105U | -3.28
41 | A37G G61A C101A G127A | -1.91
42 | G36U G69A U81A | -3.96
43 | G36C G44C U81G A121C | -3.56
44 | A37C C53G G71C C82U C101A A119U | -2
45 | A37G G51C G77C C80A G120C G128C | -5.93
46 | G36C G113C | -2.78
47 | G36U G48A C72U | -1.42
48 | G36C G42C G47C C53G C56U G61U C72U C86G U116C | -4.72

Row | Variant | polymerase ribozyme fitness (log ratio)
49 | G36U C80U C85U C98U C102A A103U A105C U106G C115G | -5.37
50 | A37C G60U U96A G110C U134A | -2.04
51 | G36A C88U | -0.885
52 | G36C G44U A46C A50G G69U U78A C85A C124U | -4.01
53 | G36C C64U G113U | -3.55
54 | G36A G57U U129C | -1.31
55 | G36U U59C U78C C101U C123A | -1.25
56 | G36C G45C A111C G122A | -2.97
57 | A37G U59C A103U G110C G122A | -6.29
58 | G36U C53G G63C C86U U87A C101A U129G | -5.54
59 | G36A U55G U87A | -1.87
60 | A37G A111C C124G | 0.322
61 | G36A G45U G61C | -3.57
62 | A37G G52A G61U | -3.07
63 | G36U U130C | -0.893
64 | A37C G48A A68G U96A | -3.13
65 | G36U G44A U59A G60A G77C U112C | 0.0936
66 | A37C G45C A111G | -2.91
67 | G36U C73G U106A G127C | -2.55
68 | G36C G61C C86U C114U | -6.11
69 | A37G U55G C72A U129A | -1.52
70 | G36A G93C | -1.47
71 | G36A C62A C102A | -5.26
72 | A37G C64U U78C C86G | -4.56

Row | Variant | polymerase ribozyme fitness (log ratio)
73 | G36C A84U C85A C114G | -6
74 | G36C C94U C97U | -1.57
75 | G36A U92A C115U | -4.93
76 | A37U C62G | -3.59
77 | A37C G57U A68G | -3.57
78 | A37G A68G A111C C124G | -3.95
79 | A37U A90G C97A | -5.5
80 | G36C G44U A90C C102U | -5.65
81 | G36U G44U | -2.24
82 | G36U G42U C99A C114A | -7.29
83 | G36C U92A A118U | -3.89
84 | G36A G63A U78C | -1.53
85 | A37U A121C U126G G128U | 0.977
86 | A37C G42A A43U C104A | -5.34
87 | A37U C70A C99U | -5.64
88 | A37C C64U U87A G117U | -3.55
89 | A37G C80U | -2.46
90 | G36C G69U G120C | 0.673
91 | G36U C56U | -1.07
92 | A37C G128C | -3.32
93 | G36A U106A | -0.912
94 | A37C A91C | -0.946
95 | G36C G47U G110C | -5.66
96 | A37G G69U C89G | -2.64

Row | Variant | polymerase ribozyme fitness (log ratio)
97 | A37G C49A C56A G128C | -3.61
98 | A37U A50C C70A C124G | -1.17
99 | G36U C56G C123G | -5.15
100 | G36U G44U U112G | -4.18
101 | G36U U106G | -4.55
102 | A37U A50C G61A G117C U130C | -4.59
103 | G36A G117C | -4.58
104 | G36A G117U | -4.6
105 | G36C G120A | -0.114
106 | G36C G120U | -0.655
107 | G36C C49A C79U C101G | -2.06
108 | A37C A46G C49A C72A | -0.663
109 | G36U G58C C89A A91C C115U | -4.15
110 | G36U G44U A75G U112C U131G | -1.21
111 | G36U G58U U59A A91C U112A | -2.22
112 | A37U C70A U109A | -6.47
113 | A37C C70U | -0.649
114 | A37C G44U C56G C73A C86U | -5.78
115 | A37G G48A C56G G93A G110C | -5.64
116 | G36C U126G | -3.08
117 | G36A G57A C80U U112C C114A A119U G122U | -5.44
118 | A37G A100U | -1.32
119 | G36A G61A | -0.395
120 | G36C C88U C89A | -3.3

Row | Variant | polymerase ribozyme fitness (log ratio)
121 | G36C G57U A90C U106A | -3.67
122 | G36U G42A | -3.47
123 | G36U G42C | -2.93
124 | G36U C82G U92C | -2.13
125 | G36A C62A | -1.61
126 | G36A C62U | -0.332
127 | A37G C53A C73G A105G U109G U112A | -6.74
128 | G36A G61A G77A | -1.53
129 | G36C G60U | -0.402
130 | A37U C49A U55C U112A | 0.525
131 | G36U G48U U132A G135C | -1.44
132 | G36U U55C A66C | -3.51
133 | G36A C97A | -3.86
134 | A37G G63U C101G C104G C114U G128A | -4.99
135 | G36A G61C G93C G110A | -6.04
136 | G36C C98G | -6.86
137 | A37C G44U U133G | -2.6
138 | A37C C102A | -2.31
139 | G36U C64U | -1.21
140 | G36U G45U G47U C101U C104A C123G U125C | -5.24
141 | G36U C73U C114G C115G A119C G127U | -6.83
142 | A37C G42A A43U C49U C53G U55C | -4.27
143 | A37G C62U | -0.523
144 | G36U U78C | -1.61

Row | Variant | polymerase ribozyme fitness (log ratio)
145 | A37C C40A G52A G61C A111C G127C | -5.24
146 | G36U A43U | -2.65
147 | G36U C73A C124U | 0.315
148 | G36C G42A C89U C114A G117C | -6.44
149 | A37C C70G C79U A121U | 0.503
150 | G36U G39C | -1.56
151 | A37G U38G G61U C104U C124G | -4.81
152 | A37U C70U C79U | -0.766
153 | A37C G61U | 0.0821
154 | A37C C114G G120A C123U | -5.25
155 | G36U U38A G48U G61U G63A C97U C115U | -5.64
156 | G36U C62A C123U G128C | -3.69
157 | G36U A37C C104U | -1.76
158 | A37U C49G U55A C104A | -1.38
159 | G36A G61U A103C A118U | -6.19
160 | G36U G69U U96C C101U U126A | -2.59
161 | G36U C123G U131G | 0.0423
162 | G36A G52A A66G C79G | -2.84
163 | G36A G52C | -2.17
164 | G36C C76U C123U | -0.606
165 | G36A G57A | -1.38
166 | A37C C70U C85U C98U G113U U133A | -5.51
167 | A37U C49A C86U G117C | -4.27
